Earlier results, collected in US5763478A, “Triterpene derivatives with immunosuppressant activity” (Merck & Co., Inc., priority 1996, dated 1998).

Biological target: T1, KV 1.3 channels (CHO cells transfected with KV 1.3) (Homo sapiens, UniProt P22001)
T1 construct: expressed in transfected cells; host or cells: CHO cells
Settings: reference blocker used at saturating concentration to set the efflux window

T1 sequence (P22001 53-575 limits assumed): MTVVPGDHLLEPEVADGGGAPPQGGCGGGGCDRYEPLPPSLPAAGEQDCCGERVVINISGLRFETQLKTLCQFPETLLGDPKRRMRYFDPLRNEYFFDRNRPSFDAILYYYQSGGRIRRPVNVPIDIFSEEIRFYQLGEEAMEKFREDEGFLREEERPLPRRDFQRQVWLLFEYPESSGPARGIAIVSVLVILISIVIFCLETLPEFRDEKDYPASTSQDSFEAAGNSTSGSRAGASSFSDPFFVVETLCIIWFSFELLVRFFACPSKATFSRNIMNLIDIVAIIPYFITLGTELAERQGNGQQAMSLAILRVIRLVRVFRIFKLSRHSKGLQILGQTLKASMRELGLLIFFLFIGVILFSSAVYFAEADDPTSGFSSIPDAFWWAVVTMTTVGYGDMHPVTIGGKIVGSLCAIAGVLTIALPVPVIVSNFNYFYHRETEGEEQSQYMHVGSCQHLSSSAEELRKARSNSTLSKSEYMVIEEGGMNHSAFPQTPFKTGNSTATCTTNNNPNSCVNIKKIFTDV

For “margatoxin (TIINVKCTSPKQCLPPCKAQFGQSAGAKCMNGKCKCYPH; UniProt P40755 1-39, looked up)”, the IC50 is given as 100 pM.
